In test [1] the target is T1, GST-hDM2 (residues 1-188) (human, UniProt Q00987 1-188).
T1 construct: also called human oncoprotein double minute two; not shown: glutathione S-transferase (GST) fusion partner
Put plainly: competition with 10 nM p53AD-Flu for 400 nM GST-hDM2; fraction of p53AD-Flu bound at equilibrium.

The target of test [2] is Calmodulin (Sigma) (Homo sapiens (Human), UniProt P0DP23 2-149). Put plainly: fluorescence titration of the labeled peptide; buffer with 130 mM KCl, 1 mM CaCl2.
Test [3] has as its target Carbonic anhydrase II (Sigma). Put plainly: fluorescence titration of the labeled peptide, PBS.
In test [4] the target is T2, Human recombinant Bcl-2 (1-205), soluble GST-fusion (human, UniProt P10415 1-205).
T2 construct: Bought from Santa Cruz Biotechnology; also called GST-Bcl-2; not shown: glutathione S-transferase (GST) fusion partner
T2 sequence (P10415 1-205): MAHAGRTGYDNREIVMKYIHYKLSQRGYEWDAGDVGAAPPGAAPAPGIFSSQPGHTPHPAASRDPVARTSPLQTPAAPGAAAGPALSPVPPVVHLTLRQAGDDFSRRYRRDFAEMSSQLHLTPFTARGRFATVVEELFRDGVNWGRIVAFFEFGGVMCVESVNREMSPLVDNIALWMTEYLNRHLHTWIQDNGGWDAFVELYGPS
Put plainly: change of fluorescence emission of the fluorescein-labeled peptide on titration with Bcl-2, 4°C, PBS.

Where no end group is shown, it is not given here.

T1 sequence (Q00987 1-188): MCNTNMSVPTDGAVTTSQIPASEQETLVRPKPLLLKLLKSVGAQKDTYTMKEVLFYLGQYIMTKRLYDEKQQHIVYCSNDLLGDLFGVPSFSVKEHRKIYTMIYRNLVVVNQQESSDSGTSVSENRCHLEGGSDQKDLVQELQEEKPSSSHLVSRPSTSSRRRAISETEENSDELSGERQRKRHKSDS

For orientation: Ki means a dissociation constant, usually derived from enzyme kinetics or from competition with a known ligand. Molecule GPSQPTYPGDDAPVEDLIRFKFLLQWYLLAL (designed binder, also called p3559) [pZutshi, as competitor (not labeled)] showed a Ki in test [1] of 0.722 µM.
A word on the Kd: it is a measure of binding affinity in units of concentration. Turning to GQVGRQLAIIGDDINRYC(5‑iodoacetamidofluorescein)-NH2 (also called Bak BH3 peptide; Bak 72-94) [Bak peptide, fluorescein-labeled form with additional carboxy-terminal YC], the equilibrium dissociation constant (Kd) was 25 µM in test [2], 22 µM in test [3] and 0.363 µM in test [4].

Source of the values: patent EP1724347A2 (Yale University, dated 2006).
